The experiment deals with T1, Bacillus subtilis Sfp (Surfactin synthetase activating enzyme, 4'-phosphopantetheinyl transferase) (Bacillus subtilis, UniProt P39135 1-224).
T1 sequence (looked up): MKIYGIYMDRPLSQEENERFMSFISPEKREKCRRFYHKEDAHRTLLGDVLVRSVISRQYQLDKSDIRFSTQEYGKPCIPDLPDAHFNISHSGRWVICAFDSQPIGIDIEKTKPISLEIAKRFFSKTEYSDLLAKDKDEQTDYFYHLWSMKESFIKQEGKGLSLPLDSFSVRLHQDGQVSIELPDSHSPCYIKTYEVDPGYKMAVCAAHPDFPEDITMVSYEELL
The experiment in a line: NMR titration.

B1: S36A mutant of E. coli acyl carrier protein (natural protein)
chain: STIEERVKKIIGEQLGVKQEEVTNNASFVEDLGADALDTVELVMALEEEFDTEIPDEEAEKITTVQAAIDYINGHQA
Turning to B1, the binding result is “binds”.

These data come from publication doi:10.1101/2025.01.28.635281 (bioRxiv, 2025).
